From patent US20050232925A1, “Protease activity of thrombin inhibits angiogenesis” (priority 2002, published 2005) come the findings set out here.

The subject of experiment [1] is HUVEC cells. Put plainly: In vitro angiogenesis (matrigel tube formation) assay. The format is cell-based, human. The settings on record: in the absence of plasma; rt-PA 1 μg/ml, captopril 0.1 μM. The procedure:
In Vitro Angiogenesis (matrigel tube formation) Assay. Unpolymerized matrigel (7 mg/ml) was placed in the wells (100 μl/well) of a pre-chilled 48-well cell culture plate and then incubated at 37° C. for 30-45 minutes. HUVEC cells were harvested in trypsin and resuspended in EC medium (4×10^4 in 300 μl). Cells were treated with the different agents before plated onto the matrigel-coated plates. […] Microphotographs of the center of each well at low power (40×) were taken with a SPOT camera (Diagnostic Instruments Inc; Sterling Heights, Mich.) and the aid of an imaging capture software (Compix Inc Imaging Systems; Township, Pa.). The microphotographs were quantitatively analyzed (total tube length) with the Simple PCI imaging analysis software (Compix).
Matrigel tube formation assays. Samples collected from the purification process were exchanged into 1×PBS and reconstituted into 1× concentration (by volume) compared to the input tPA/captopril-treated plasma. They were tested in the matrigel tube formation assays at 10% (v/v) as follows. […] Tube formation was examined (4× magnification) through an inverted phase contrast microscope (Nikon Corporation; Tokyo, Japan) and recorded by a Spot RT camera (Diagnostic Instruments Inc; Sterling Heights, Mich.) using an automated image capture software (Compix Inc Imaging Systems; Township, Pa.).

Experiment [2] concerns 4T1 murine breast cancer cell line. Put plainly: Primary tumor growth of transfected 4T1 cells in BALB/c mice. The settings on record: stable expression in 4T1 cells, mammary pad of BALB/c mice, vs empty vector, five weeks. The format is in vivo. From the text:
Construction of mutant uPA clones and cell transfection. We chose to pursue a genetic approach, in which we stably transfected an aggressive and highly metastatic murine breast cancer cell line (4T1) with the genes for wild type uPA, tPA and a receptor binding mutant of uPA (uPAm). We inserted the cDNA encoding murine tPA into pcDNA 3.1 (+) (Invitrogen), a CMV driven mammalian expression vector, by restriction enzyme digestion of BamHI and NheI. Wild type uPA cDNA was inserted to the pcDNA 3.1 (+) expression vector and the transfected into 4T1 cells in a similar fashion as described for the tPA cDNA. Residues 22, 27, 29 and 30 on the growth factor domain of the murine uPA molecule have been implicated in binding to mouse uPAR.
The pcDNA 3.1-tPA, pcDNA 3.1-wild type uPA, pcDNA 3.1-uPAm constructs, as well as an empty vector control were introduced into 4T1 cells by transfection using lipofectamine (Gibco-BRL) reagent. We selected 12-14 stable single clones in each group with 500 ug/mL of hygromycin. Each of the clones was evaluated for generation of the gene of interest by northern blot. The clones that had the highest generation of the genes of interest were selected. […]
Experiments using transfected tumor cells. […] Primary tumor size was measured every other day for a total of five weeks using calipers and calculated using the standard formula (width2×length×0.52). […]

B1: rt-PA: rt-PA (Genentech), recombinant tissue plasminogen activator; called tPA in Example 2 (protein, UniProt P00750 36-562, looked up)
Tissue-type plasminogen …: SYQVICRDEKTQMIYQQHQSWLRPVLRSNRVEYCWCNSGRAQCHSVPVKSCSEPRCFNGGTCQQALYFSDFVCQCPEGFAGKCCEIDTRATCYEDQGISYRGTWSTAESGAECTNWNSSALAQKPYSGRRPDAIRLGLGNHNYCRNPDRDSKPWCYVFKAGKYSSEFCSTPACSEGNSDCYFGNGSAYRGTHSLTESGASCLPWNSMILIGKVYTAQNPSAQALGLGKHNYCRNPDGDAKPWCHVLKNRRLTWEYCDVPSCSTCGLRQYSQPQFRIKGGLFADIASHPWQAAIFAKHRRSPGERFLCGGILISSCWILSAAHCFQERFPPHHLTVILGRTYRVVPGEEEQKFEVEKYIVHKEFDDDTYDNDIALLQLKSDSSRCAQESSVVRTVCLPPADLQLPDWTECELSGYGKHEALSPFYSERLKEAHVRLYPSSRCTSQHLLNRTVTDNMLCAGDTRSGGPQANLHDACQGDSGGPLVCLNDGRMTLVGIISWGLGCGQKDVPGVYTKVTNYLDWIRDNMRP
modifications: alteplase
As to B1, the “inhibition of tube formation” value in experiment [1] is “did not cause significant inhibition of tube formation”.

B2: tPA: murine tPA expressed from pcDNA 3.1 in 4T1 cells (not the rt-PA drug) (protein, UniProt P11214 33-559, looked up)
Tissue-type plasminogen …: SYRATCRDEPTQTTYQQHQSWLRPMLRSSRVEYCRCNSGLVQCHSVPVRSCSEPRCFNGGTCQQALYFSDFVCQCPDGFVGKRCDIDTRATCFEEQGITYRGTWSTAESGAECINWNSSVLSLKPYNARRPNAIKLGLGNHNYCRNPDRDLKPWCYVFKAGKYTTEFCSTPACPKGKSEDCYVGKGVTYRGTHSLTTSQASCLPWNSIVLMGKSYTAWRTNSQALGLGRHNYCRNPDGDARPWCHVMKDRKLTWEYCDMSPCSTCGLRQYKRPQFRIKGGLYTDITSHPWQAAIFVKNKRSPGERFLCGGVLISSCWVLSAAHCFLERFPPNHLKVVLGRTYRVVPGEEEQTFEIEKYIVHEEFDDDTYDNDIALLQLRSQSKQCAQESSSVGTACLPDPNLQLPDWTECELSGYGKHEASSPFFSDRLKEAHVRLYPSSRCTSQHLFNKTVTNNMLCAGDTRSGGNQDLHDACQGDSGGPLVCMINKQMTLTGIISWGLGCGQKDVPGVYTKVTNYLDWIHDNMKQ
On to B2, for which, in experiment [2], the “inhibition of primary tumor growth” value was “significantly inhibit tumor cell growth”.
